Source: publication PMC3140568 (Journal of immunology (Baltimore, Md. : 1950), 2011)
Square brackets hold non-standard residues; d marks the D form. Ends that are not written are not given here. pS = N[C@@H](COP(=O)(O)O)C(=O)O

Molecular target: T1, TNF receptor-associated death domain protein, wild type (human, UniProt Q15628 1-312)
T1 sequence (looked up): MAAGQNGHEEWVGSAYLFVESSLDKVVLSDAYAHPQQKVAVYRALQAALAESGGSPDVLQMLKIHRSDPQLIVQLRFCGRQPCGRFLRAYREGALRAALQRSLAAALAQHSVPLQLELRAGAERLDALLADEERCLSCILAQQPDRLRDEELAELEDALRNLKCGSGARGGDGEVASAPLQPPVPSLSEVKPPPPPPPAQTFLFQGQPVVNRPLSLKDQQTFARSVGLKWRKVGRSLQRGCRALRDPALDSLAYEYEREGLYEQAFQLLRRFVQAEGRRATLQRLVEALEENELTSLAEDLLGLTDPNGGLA
Assay: peptide competition on an immuno-purified complex

## VRRLGL[pS]DHEIDRLELQNGRC (peptide, UniProt P19438 375-395, looked up) [phosphorylated peptide containing the S381XXE motif of TNFR1 (position 375–395)]
  binding result: binds
